Measurements taken from patent US20050054822A1 (published 2005).

Target: T1, human MARCO (macrophage receptor with a collagenous structure) (human, UniProt Q9UEW3 1-520)
T1 construct: also called HIN-2 receptor
T1 sequence: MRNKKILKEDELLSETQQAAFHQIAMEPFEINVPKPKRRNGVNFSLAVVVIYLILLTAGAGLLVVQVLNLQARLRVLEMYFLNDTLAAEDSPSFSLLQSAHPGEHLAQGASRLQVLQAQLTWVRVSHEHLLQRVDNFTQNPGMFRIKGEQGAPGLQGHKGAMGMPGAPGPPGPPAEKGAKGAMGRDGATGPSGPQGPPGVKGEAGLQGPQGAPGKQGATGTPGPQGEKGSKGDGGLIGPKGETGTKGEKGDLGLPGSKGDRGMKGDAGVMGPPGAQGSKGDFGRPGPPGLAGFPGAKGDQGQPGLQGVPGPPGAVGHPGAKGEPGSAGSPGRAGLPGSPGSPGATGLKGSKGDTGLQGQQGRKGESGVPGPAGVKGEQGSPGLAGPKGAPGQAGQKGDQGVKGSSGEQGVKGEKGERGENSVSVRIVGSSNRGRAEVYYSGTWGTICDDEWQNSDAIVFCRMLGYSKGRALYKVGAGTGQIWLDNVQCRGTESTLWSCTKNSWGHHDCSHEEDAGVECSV
Assay: staining of retrovirally transduced U937 cells with FLAG-HIN-2
From the text: cDNA for both MARCO and SP-C were subcloned into the MSCV-IRES retroviral vector, which contains an IRES element followed by the gene encoding green fluorescent protein (GFP). Briefly, for MARCO, full length cDNA fragment encoding MARCO was amplified by PCR from the single MARCO expression cell clone cDNA with two primers from the human lung retroviral cDNA library (Strategene). The amplified cDNA fragment was digested with Sal I and Not I and cloned into the Xho I and Not I site of MSCV-GFP plasmid and PRK plasmids to make MSCV-MARCO and PRK-MARCO. SP-C cDNA was similarly prepared. Viruses were produced and used to infect U937 cells, and the infected cells were stained with FLAG-HIN-2. The FLAG-HIN-2 specifically stained the U937 cell line transduced with retroviruses encoding the MARCO, but no staining was detected on uninfected, MSCV-empty vector infected, or SP-C infected cells (data not shown).

- binding result: binds
B1: FLAG-HIN-2 (mature human HIN-2 with a carboxy-terminal Flag tag, secreted from 293 cells) (ligand)
chain: FLINKVPLPVDKLAPLPLDNILPFMDPLKLLLKTLGISVEHLVEGLRKCVNELGPEASEAVKKLLEALSHLV
notes: also called HIN-2-FLAG; UGRP1; not shown: C-terminal Flag tag from the PRK-C-FLAG vector; The tagged mature protein is stated to be 86 amino acids, so 14 residues
